Test results as given in the Human Domainome abundance scans (Beltran et al. 2025).
± gives the uncertainty stated by the source.

B1: SWI/SNF complex subunit SMARCC2, residues 599 to 641; numbered along this chain, Q8TAQ2 (parent)
chain: REWTEQETLLLLEALEMYKDDWNKVSEHVGSRTQDECILHFLR

Variants of: B1
Assay: abundance fitness (aPCA) (normalised: wild type 0, dead -1); higher = more abundant; growth selection in yeast, the domain comes from the species named
Details: Homo sapiens

Variant	abundance fitness
L9W	-0.118 ± 0.094
K19P	-0.052 ± 0.074
W22C	-0.792 ± 0.13
H40A	-0.081 ± 0.096
L11C	-0.17 ± 0.1
E5Q	0.164 ± 0.24
E5W	-0.201 ± 0.2
H28G	-0.341 ± 0.11
D35E	-0.035 ± 0.15
K24H	-0.139 ± 0.12
S26N	-0.62 ± 0.12
I38V	-0.019 ± 0.11
E2R	0.165 ± 0.061
C37V	-0.134 ± 0.087
E27Q	-0.244 ± 0.15
T8S	-0.102 ± 0.065
T8Q	0.316 ± 0.069
H28F	-0.401 ± 0.23
E7P	-0.804 ± 0.11
L10T	-0.226 ± 0.096
T33C	-0.064 ± 0.13
K19I	-0.303 ± 0.1
E5V	-0.189 ± 0.063
C37S	-0.428 ± 0.094

Variant	abundance fitness
Y18F	-0.417 ± 0.17
A14G	0.062 ± 0.064
W3V	-0.203 ± 0.23
I38M	0.151 ± 0.07
L11T	-0.412 ± 0.091
E5H	-0.153 ± 0.084
Y18T	-0.383 ± 0.067
E7D	-0.557 ± 0.17
K19G	-0.235 ± 0.06
L39D	0.642 ± 0.34
Q34V	-0.018 ± 0.07
C37N	-0.67 ± 0.16
N23K	0.037 ± 0.072
Q6V	-0.117 ± 0.095
S26R	0.219 ± 0.066
L42D	0.726 ± 0.088
S26C	-0.07 ± 0.088
E36K	-0.507 ± 0.29
T8D	-0.177 ± 0.33
L39T	0.235 ± 0.067
E16K	-0.059 ± 0.13
E7L	-0.833 ± 0.19
T8E	0.099 ± 0.12
V29M	0.092 ± 0.16

Variant	abundance fitness
E27R	-0.022 ± 0.066
C37E	-0.598 ± 0.44
E16L	-0.698 ± 0.11
T4Y	-0.307 ± 0.31
L10A	-0.424 ± 0.11
T33N	0.125 ± 0.09
H40N	-0.343 ± 0.16
K19W	-0.526 ± 0.11
G30N	-0.164 ± 0.1
E36Q	0.08 ± 0.33
T4D	-0.608 ± 0.19
Q34D	-0.048 ± 0.13
E36H	-0.196 ± 0.19
E13N	-0.415 ± 0.15
G30Q	-0.668 ± 0.13
G30F	-0.325 ± 0.11
N23C	0.123 ± 0.068
L10V	0.029 ± 0.081
H28R	-0.294 ± 0.082
F41I	-0.299 ± 0.11
I38S	0.224 ± 0.071
K19D	-0.143 ± 0.079
C37A	-0.332 ± 0.094
T8P	-0.843 ± 0.15

Variant	abundance fitness
E36F	-0.523 ± 0.24
Y18G	-0.163 ± 0.073
L42M	0.167 ± 0.13
L39H	0.16 ± 0.1
G30L	-0.546 ± 0.076
H28M	-0.341 ± 0.15
K19Y	-0.427 ± 0.15
E36M	-0.897 ± 0.23
L39R	0.122 ± 0.066
D20N	-0.031 ± 0.13
H28D	-1.16 ± 0.23
W3L	-0.168 ± 0.075
A14Q	-0.797 ± 0.27
R32P	-1.36 ± 0.45
R1T	0.287 ± 0.081
L10N	-0.195 ± 0.099
M17W	-0.118 ± 0.098
C37Q	-0.2 ± 0.2
L9T	0.243 ± 0.059
S31Q	0.149 ± 0.24
K24S	-0.081 ± 0.063
Q34Y	0.03 ± 0.085
Q6H	-0.282 ± 0.15
L9C	0.134 ± 0.093

Variant	abundance fitness
E7N	-0.948 ± 0.28
W22D	-0.339 ± 0.18
E16T	-0.091 ± 0.084
L9R	0.168 ± 0.056
E2V	0.247 ± 0.11
W22G	-0.615 ± 0.1
N23L	0.026 ± 0.067
R32G	-0.727 ± 0.11
L10K	0.028 ± 0.11
S31A	-0.019 ± 0.1
K24E	0.154 ± 0.098
G30C	-0.064 ± 0.12
T8A	0.109 ± 0.074
D20C	-0.15 ± 0.078
E2K	0.344 ± 0.17
L15K	0.586 ± 0.096
H28A	-0.381 ± 0.23
K24V	-0.389 ± 0.08
D35Y	-0.486 ± 0.16
E13I	-0.742 ± 0.25
V29K	-0.53 ± 0.26
L42G	0.447 ± 0.065
G30A	-0.057 ± 0.085
E27L	-0.473 ± 0.095

Variant	abundance fitness
E5I	-0.178 ± 0.12
V25H	-0.578 ± 0.2
E36D	-0.003 ± 0.12
H40D	-0.173 ± 0.2
M17A	-0.224 ± 0.071
A14S	-0.181 ± 0.067
W3E	-0.431 ± 0.16
N23W	-0.131 ± 0.12
W22R	-0.833 ± 0.12
N23I	-0.121 ± 0.14
I38N	0.274 ± 0.12
S31G	0.054 ± 0.086
L42K	0.895 ± 0.13
A14R	-0.741 ± 0.094
K24N	-0.501 ± 0.21
C37L	-0.844 ± 0.14
R32N	-0.909 ± 0.24
E16I	-0.759 ± 0.15
S26K	0.211 ± 0.089
W3A	-0.539 ± 0.25
D35R	0.027 ± 0.066
H40G	-0.178 ± 0.11
D21N	-0.314 ± 0.43
D20S	0.027 ± 0.088

Variant	abundance fitness
A14F	-1.05 ± 0.21
T8C	-0.006 ± 0.12
W3H	-0.058 ± 0.29
C37H	-0.353 ± 0.45
L42V	0.343 ± 0.06
S26W	-0.517 ± 0.1
Q34P	0.02 ± 0.075
F41M	0.059 ± 0.091
K24P	-0.524 ± 0.092
E16V	-0.501 ± 0.096
Y18V	-0.419 ± 0.092
Q6P	0.026 ± 0.069
K19M	-0.332 ± 0.38
F41G	0.417 ± 0.082
Q34S	0.056 ± 0.067
T33H	-0.214 ± 0.13
R32C	-0.432 ± 0.13
T8V	0.02 ± 0.082
E7V	-0.815 ± 0.24
T33A	0.045 ± 0.17
E16M	-0.439 ± 0.1
L9N	0.099 ± 0.073
L9Y	-0.024 ± 0.094
